Positions count from the first letter of the chain named. Names may count otherwise. “And” between values parts separate entries of the source, which are not always exact repeats. Equal entries are not always repeated.
B1: CF-301: WT GMP grade PlySs2 lysin, SEQ ID NO: 1 (protein, listed as Streptococcus suis)
chain: MTTVNEALNNVRAQVGSGVSVGNGECYALASWYERMISPDATVGLGAGVGWVSGAIGDTISAKNIGSSYNWQANGWTVSTSGPFKAGQIVTLGATPGNPYGHVVIVEAVDGDRLTILEQNYGGKRYPVRNYYSAASYRQQVVHYITPPGTVAQSAPNLAGSRSYRETGTMTVTVDALNVRRAPNTSGEIVAVYKRGESFDYDTVIIDVNGYVWVSYIGGSGKRNYVATGATKDGKRFGNAWGTFK
B2: pp65: Modified PlySs2 lysin, SEQ ID NO: 5: L92W, V104S, V128T, Y137S, S198Q, V204A, V212A; +246K (protein)
chain: B1 chain with L92W, V104S, V128T, Y137S, S198Q, V204A, V212A
B3: pp61: Modified PlySs2 lysin, SEQ ID NO: 4: L92W, V104S, V128T, Y137S, S198H, I206E; +246K (protein)
chain: B1 chain with L92W, V104S, V128T, Y137S, S198H, I206E
B4: pp55: Modified PlySs2 lysin, SEQ ID NO: 3: L92W, V104S, V128T, Y137S; extra C-terminal lysine (+246K) (protein)
chain: B1 chain with L92W, V104S, V128T, Y137S

Legend:
MRSA isolates = assay: MIC in CAMHB-HSD against MRSA isolates; type: cell-based, Staphylococcus aureus; conditions: 51 MRSA isolates
Experimental: (§1) In vitro activity of the modified lysin polypeptide pp296 was assessed against a range of 51 MSSA and 51 MRSA isolates in cation-adjusted Mueller Hinton broth supplemented with 25% horse serum and 0.5 mM DTT (CAMHB-HSD) and compared to WT GMP grade PlySs2 (CF-301). CF-301 and pp296 were each diluted into CAMHB-HSD. For each lysin, the dilution series is set up such that, after a two-fold dilution of each well of the plate, the final concentrations contained: 64, 32, 16, 8, 4, 2, 1, 0.5, 0.25, and 0.125 μg/mL. Each lysin was tested in duplicate against each strain. Preparations were incubated overnight. Growth was visualized as a growth button approximately 2 mm in diameter. The highest dilution that yielded ≥80% growth inhibition was called the minimum inhibitory concentration (MIC). The activity of pp296 was very similar, within one 2-fold dilution, to that of CF-301, as shown below in Table 7.

[1] = system: 5 MRSA strains and 5 MSSA strains; assay: Checkerboard synergy assay with daptomycin or vancomycin; type: cell-based, Staphylococcus aureus; conditions: MRSA (JMI-41293) strain
MSSA isolates = assay: MIC in CAMHB-HSD against MSSA isolates; type: cell-based, Staphylococcus aureus; conditions: 51 MSSA isolates
Experimental: as §1

[2] = system: 1-day old biofilms formed by MRSA isolates; assay: Minimum Biofilm Eradication Concentration (MBEC), MRSA biofilms; type: cell-based, Staphylococcus aureus; conditions: 24 hours treatment
Experimental: (§2) In some embodiments, the present modified lysin polypeptides are capable of reducing a biofilm. […] Biofilms are then washed and treated with e.g., a 2-fold dilution series of the lysin in TSBg at e.g., 37° C. for 24 hours. After treatment, wells are washed, air-dried at e.g., 37° C. and stained with e.g., 0.05% crystal violet for 10 minutes. After staining, the biofilms are destained in e.g., 33% acetic acid and the OD600 of e.g., extracted crystal violet is determined. The MBEC of each sample is the minimum lysin concentration required to remove >95% of the biofilm biomass assessed by crystal violet quantitation.
(§3) The anti-biofilm activity of pp296 was determined against 1-day old biofilms formed by 17 MSSA and 20 MRSA isolates in a 96-well broth microdilution format. The Minimum Biofilm Eradication Concentration (MBEC) values for pp296, compared to wild-type PlySs2 (CF-301), were determined by the following standard methodology. Bacteria were suspended in PBS (0.5 McFarland Units), diluted 1:100 in TSBg (66% tryptic soy broth, 0.2% glucose), added as 0.15 mL aliquots to 96-well polystyrene microplates, and incubated for 24 hours at 37° C. Biofilms were then washed and treated with a 2-fold dilution series of CF-301 or pp296 in TSBg at 37° C. for 24 hours. All samples were examined in triplicate. After treatment, wells were washed, air-dried at 37° C., and stained with 0.05% crystal violet for 10 min The loss of biofilm biomass was assessed visually, and crystal violet was quantitated by solubilization in 33% (vol/vol) acetic acid. The optical density of 600 nm (OD600) was determined using a SpectraMax M3 Multimode microplate reader. The MBEC of each sample was the minimum lysin concentration required to remove >95% of the biofilm biomass assessed by crystal violet quantitation.

bacterial inoculum = assay: Thermal stability: in vitro lytic assay after 30 min heating; type: cell-based; conditions: for % Wild-Type Activity at 37° C. / % of CF-301 wild-type, 37° C.: 30 minutes at 37° C.; for % Wild-Type Activity at 37° C.: 128 μg/mL in Tris buffer pH 8.0, CF-301 set at 100; for % of CF-301 wild-type, 37° C.: another experiment; for % of CF-301 wild-type, 40° C.: 30 minutes at 40° C.; for % of CF-301 wild-type, 42° C.: 30 minutes at 42° C.; for % of CF-301 wild-type, 45° C.: 30 minutes at 45° C.; for % of CF-301 wild-type, 48° C.: 30 minutes at 48° C.; for % of CF-301 wild-type, 50° C.: 30 minutes at 50° C.
Experimental: Thermal stability was assessed by incubating the lysin polypeptides at a fixed concentration of 128 μg/mL in Tris buffer pH 8.0 for 30 minutes at various elevated temperatures (within the range of about 30° C. to 60° C.) prior to assessing activity. The samples were then cooled for 2 minutes on ice and activity was then assessed by an in vitro lytic assay by exposing a bacterial inoculum (OD600 ˜0.5-1.2) in Tris buffer to a 2-fold dilution series of each sample (diluted from 128-0.25 μg/mL across the x-axis of a 96 well microtiter plate). The loss of optical density was followed for 15 minute at room temperature, and the specific activity was determined based on the enzyme concentration enabling a 50% loss of optical density at 15 minutes. The enzyme activities of each variant were compared to the wild-type, CF-301 enzyme (GMT-grade PlySs2 protein) to calculate the % of Wild-Type Activity over a range of temperatures.
The thermal stability of wild-type, CF-301 was arbitrarily set at 100. The results for exemplary modified lysin polypeptides are set forth below in Table 5 at a single temperature of 37° C.:
In another experiment, the thermal stability of modified lysin polypeptides was assessed at different temperatures and compared with that of wild-type, CF-301 (set at 100).

[3] = system: 5 MRSA strains and 5 MSSA strains; assay: Checkerboard synergy assay with daptomycin or vancomycin; type: cell-based, Staphylococcus aureus; conditions: with vancomycin
Experimental: Synergy studies with antibiotics suitable for treatment of Gram-positive bacteria, for example, daptomycin (DAP) and vancomycin (VAN), were performed using a checkerboard assay. Fractional inhibitory concentration (FIC) index values were determined for modified lysin polypeptide pp296 and antibiotic combinations against 5 methicillin-sensitive Staphylococcus aureus (MSSA) and 5 methicillin resistant Staphylococcus aureus (MRSA) isolates. An FIC index value of ≤0.5 may be interpreted as strong synergy between the two agents, while a value between 0.5 and 1 may still be considered a synergistic effect. Given that pp296 has four amino acid replacements in the catalytic domain, the ability of pp296 to synergize with antibiotics was unexpected. […] Qualitatively similar results may be anticipated upon performing similar assays using other de-immunized active variants, such as pp55, pp61, pp65, pp400, and pp619, in accordance with the present disclosure.
In another experiment, the ability of modified lysin polypeptide pp296 to synergize with daptomycin and vancomycin was assessed using a checkerboard analysis. FIC (fractional inhibitory concentration) index values were determined for pp296 and antibiotic combinations against 5 MSSA and 5 MRSA isolates. A total of 50 μl of Mueller-Hinton broth (BBL) was distributed into each well of microdilution plates. The first antibiotic of the combination was serially diluted along the ordinate, while the second drug was diluted along the abscissa. An inoculum equal to a 0.5 McFarland turbidity standard was prepared from each S. aureus isolate in MHB. Each microtiter well was inoculated with 100 μl of a bacterial inoculum of 5×10^5 CFU/ml, and the plates were incubated at 37° C. for 18 h under aerobic conditions. The resulting checkerboard contained each combination of two antibiotics, with wells that contained the highest concentration of each antibiotic at opposite corners. […] To quantify the interactions between the antibiotics being tested, the FIC index (the combination of antibiotics that produced the greatest change from the individual antibiotic's MIC) value was calculated for each strain and antibiotic combination as follows:
(A/MICA)+(B/MICB)=FICA+FICB=FIC index,
Checkerboards were generated using combinations of pp296 with either daptomycin or vancomycin against 5 MRSA strains (MW2, JMI-5675, JMI-4408, JMI-6181, and JMI-6182) and 5 MSSA strains (ATCC 29213, JMI-40979, JMI-43257, JMI-41293, and JMI-49315). Synergy was defined as inhibitory activity greater than what would be predicted by adding the two components together.

[4] = Toxicity screening in mice; type: in vivo
Experimental: Selected modified lysin polypeptides from Table 3 were subjected to further testing as described in more detail in subsequent Examples. […] The same 30 mg/kg dose of PlySs2 caused a 100% incidence of adventitial findings, which is an indication of potential toxicity.

[5] = system: 1-day old biofilms formed by MSSA isolates; assay: Minimum Biofilm Eradication Concentration (MBEC), MSSA biofilms; type: cell-based, Staphylococcus aureus; conditions: 24 hours treatment
Experimental: as §2, §3

[6] = system: S. aureus isolate CFS-860; assay: Mouse neutropenic thigh infection (MNTI) model; type: in vivo, Staphylococcus aureus; conditions: neutropenic BALB/cByJ mice, intravenous, dose response, 24 hours
Experimental: The efficacy of four modified lysin polypeptides was compared to wild-type PlySs2 in a dose response (0-60 mg/kg) assay using a mouse neutropenic thigh infection (MNTI) model.
Bacterial inoculum was generated by allowing bacterial cells to grow to exponential phase in MHB until they reached an optical density (OD) of about 0.5 at 600 nm. The bacterial cells were thoroughly washed, resuspended in 0.9% sodium chloride USP, and diluted to an equivalent of 3.9×10^8 colony forming units (CFU)/mL. Cells were further diluted as described below in 0.9% sodium chloride USP and maintained on wet ice.
Neutropenia was induced in female BALB/cByJ mice (5-7 weeks, Jackson Laboratories) by intraperitoneal (ip) administration of 150 mg/kg and 100 mg/kg of cyclophosphamide 4 and 1 days prior to inoculation of bacteria, respectively. Bacterial inoculum (S. aureus isolate CFS-860, 100 μl of 10^7 CFU/ml solution) was injected intramuscularly (IM) into both posterior thighs of each mouse. […] At 2 hours post-inoculation (Early Control) and 24 hours post-treatment initiation, animals were euthanized (CO2 asphyxiation), and the thighs were aseptically removed. Each thigh was weighed, placed into 4 ml sterile saline and homogenized in 7 ml lysing tubes using a Precellys24 high-throughput tissue homogenizer (Bertin Corp, Rockville, Md.). Dilutions of homogenate were plated on tryptic soy blood agar plates (Becton Dickinson) and incubated at 37° C. overnight in a CO2 incubator. Bacterial burden was enumerated and expressed as log 10 CFU/g of thigh weight and compared to control animals harvested at 2 hours post infection (Early Control) and animals treated with vehicle (Late Control).
The data representing mouse thigh bacterial burden are depicted in FIG. 2. The upper dot on the y-axis is vehicle alone, and the lower dot on the y-axis is the Early Control. pp1149 is in fact also a wild-type lysin over-expressed and purified in the laboratory along with the other modified lysin polypeptides and used as an additional positive control.

| Molecule | % Wild-Type Activity at 37° C. (bacterial inoculum) | Adventitial findings (lesions) ([4]; 30 mg/kg) | % of CF-301 wild-type, 37° C. (bacterial inoculum) [%] | % of CF-301 wild-type, 40° C. (bacterial inoculum) [%] | % of CF-301 wild-type, 42° C. (bacterial inoculum) [%] | % of CF-301 wild-type, 45° C. (bacterial inoculum) [%] | % of CF-301 wild-type, 48° C. (bacterial inoculum) [%] | % of CF-301 wild-type, 50° C. (bacterial inoculum) [%] | Bactericidal efficacy (thigh bacterial burden) versus wild type [6] | also measured |
| --- | --- | --- | --- | --- | --- | --- | --- | --- | --- | --- |
| B1 | 100% | all mice |  |  |  |  |  |  |  | MIC50 (MRSA isolates): 0.5 µg/mL; MIC90 (MRSA isolates): 0.5 µg/mL; MIC Range (MRSA isolates): 0.12 to 1 µg/mL; FIC index [1]: 0.5; MIC50 (MSSA isolates): 0.5 µg/mL; MIC90 (MSSA isolates): 1 µg/mL; MIC Range (MSSA isolates): 0.5 to 1 µg/mL; MBEC50 [2]: 0.125 µg/mL; MBEC90 [2]: 0.125 µg/mL; MBEC Range [2]: 0.125 to 0.25 µg/mL; FIC index ([3]; MRSA JMI-6182): 0.5; FIC index ([3]; MSSA ATCC 29213): 0.5; FIC index ([3]; MSSA strain JMI-40979): 0.5; FIC index ([3]; against 6 of the 10 strains examined): 0.5; Kidney findings (renal changes) [4]: did not result in kidney findings; Incidence of adventitial findings ([4]; 30 mg/kg): 100%; MBEC50 [5]: 0.125 µg/mL; MBEC90 [5]: 0.125 µg/mL; MBEC Range [5]: 0.125 to 0.5 µg/mL |
| B2 | 220% | did not result in adventitial lesions | 219.9 | 248.4 | 270.4 | 82.1 | 0.0 | 0.0 | activity comparable to wild-type PlySs2 lysin |  |
| B3 | 258% | did not result in adventitial lesions | 258.3 | 149.1 | 189.4 | 80.0 | 0.0 | 0.0 | activity comparable to wild-type PlySs2 lysin |  |
| B4 | 122% and 146% | did not result in adventitial lesions | 122.1 | 110.8 | 116.7 | 82.0 | 36.5 | 11.2 | activity comparable to wild-type PlySs2 lysin |  |

From patent publication US20210032294A1, “MODIFIED PlySs2 LYSINS AND USES THEREOF” (CONTRAFECT CORPORATION, priority 2018, published 2021)
